# B1: Interferon-induced helicase C domain-containing protein 1 (Homo sapiens), Q9BYX4 (parent)
# chain: MSNGYSTDENFRYLISCFRARVKMYIQVEPVLDYLTFLPAEVKEQIQRTVATSGNMQAVELLLSTLEKGVWHLGWTREFVEALRRTGSPLAARYMNPELTDLPSPSFENAHDEYLQLLNLLQPTLVDKLLVRDVLDKCMEEELLTIEDRNRIAAAENNGNESGVRELLKRIVQKENWFSAFLNVLRQTGNNELVQELTGSDCSESNAEIENLSQVDGPQVEEQLLSTTVQPNLEKEVWGMENNSSESSFADSSVVSESDTSLAEGSVSCLDESLGHNSNMGSDSGTMGSDSDEENVAARASPEPELQLRPYQMEVAQPALEGKNIIICLPTGSGKTRVAVYIAKDHLDKKKKASEPGKVIVLVNKVLLVEQLFRKEFQPFLKKWYRVIGLSGDTQLKISFPEVVKSCDIIISTAQILENSLLNLENGEDAGVQLSDFSLIIIDECHHTNKEAVYNNIMRHYLMQKLKNNRLKKENKPVIPLPQILGLTASPGVGGATKQAKAEEHILKLCANLDAFTIKTVKENLDQLKNQIQEPCKKFAIADATREDPFKEKLLEIMTRIQTYCQMSPMSDFGTQPYEQWAIQMEKKAAKEGNRKERVCAEHLRKYNEALQINDTIRMIDAYTHLETFYNEEKDKKFAVIEDDSDEGGDDEYCDGDEDEDDLKKPLKLDETDRFLMTLFFENNKMLKRLAENPEYENEKLTKLRNTIMEQYTRTEESARGIIFTKTRQSAYALSQWITENEKFAEVGVKAHHLIGAGHSSEFKPMTQNEQKEVISKFRTGKINLLIATTVAEEGLDIKECNIVIRYGLVTNEIAMVQARGRARADESTYVLVAHSGSGVIEHETVNDFREKMMYKAIHCVQNMKPEEYAHKILELQMQSIMEKKMKTKRNIAKHYKNNPSLITFLCKNCSVLACSGEDIHVIEKMHHVNMTPEFKELYIVRENKALQKKCADYQINGEIICKCGQAWGTMMVHKGLDLPCLKIRNFVVVFKNNSTKKQYKKWVELPITFPNLDYSECCLFSDED
# B2: Interferon-induced helicase C domain-containing protein 1 (Homo sapiens), Q9BYX4 (parent)
# chain: B1 chain
# partner: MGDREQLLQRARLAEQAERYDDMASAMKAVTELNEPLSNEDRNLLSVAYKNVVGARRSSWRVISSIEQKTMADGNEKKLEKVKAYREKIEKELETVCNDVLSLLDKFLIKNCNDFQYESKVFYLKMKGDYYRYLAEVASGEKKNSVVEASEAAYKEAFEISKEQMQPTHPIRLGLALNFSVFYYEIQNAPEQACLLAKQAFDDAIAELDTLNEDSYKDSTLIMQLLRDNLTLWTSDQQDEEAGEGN
# Variants of: B1
# Settings: with isg15_human ISG15, P05161
# isg15_human ISG15, P05161, sequence (P05161 whole entry): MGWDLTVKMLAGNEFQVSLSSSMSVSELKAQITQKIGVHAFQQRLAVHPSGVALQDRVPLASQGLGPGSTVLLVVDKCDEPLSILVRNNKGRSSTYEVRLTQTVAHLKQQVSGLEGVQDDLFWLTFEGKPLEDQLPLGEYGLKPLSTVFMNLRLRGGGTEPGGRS
row,Variant,effect of a mutation on the interaction
1,K43R,decreasing interaction strength
2,K23R;K43R,disrupting interaction strength
3,K23R,decreasing interaction strength
4,K68R,decreasing interaction strength
5,K128R,with no effect

# Results, then the variant that gave them:
row,effect of a mutation on the interaction,Variant
1,with no effect,K137R
2,with no effect,K169R
3,increasing interaction strength,K235R
4,with no effect,K174R

# Variants of: B2
# Settings: with 1433f_human YWHAH
row,Variant,effect of a mutation on the interaction
1,K23R;K43R,with no effect
2,K68R,with no effect
